Reference: FireProtDB (doi:10.1074/jbc.273.32.19982)

B1: DNA-binding protein HU, P0A3H0 (parent)
chain: MNKTELINAVAETSGLSKKDATKAVDAVFDSITEALRKGDKVQLIGFGNFEVRERAARKGRNPQTGEEMEIPASKVPAFKPGKALKDAVK
B2: DNA-binding protein HU 1, P08821 (parent)
chain: MNKTELINAVAEASELSKKDATKAVDSVFDTILDALKNGDKIQLIGFGNFEVRERSARKGRNPQTGEEIEIPASKVPAFKPGKALKDAVAGK

Key:
[1] = variants of: B1; conditions: Geobacillus stearothermophilus, pH 7, Thermal, structure 1HUE, whole UniProt chain shown; for ddG of mutation (higher = less stable): 63.9 °C
[2] = variants of: B2; conditions: Bacillus subtilis (strain 168), pH 7, Thermal, CD, Sodium phosphate 5 mM, NaCl 0.2 M, reversible: yes, whole UniProt chain shown; for ddG of mutation (higher = less stable): 48.6 °C
[3] = CD, Sodium phosphate 5 mM, NaCl 0.2 M, reversible: yes

| Variant | ddG of mutation (higher = less stable) [1, 3] | Tm [1, 3] | change of melting temperature, mutant - wild type (higher = more stable) [1, 3] | unfolding enthalpy (van 't Hoff) [1, 3] | Tm ([1]; DSC, phosphate 0.05 M) | change of melting temperature, mutant - wild type (higher = more stable) ([1]; DSC, phosphate 0.05 M) | ddG of mutation (higher = less stable) [2] | Tm [2] | change of melting temperature, mutant - wild type (higher = more stable) [2] |
| --- | --- | --- | --- | --- | --- | --- | --- | --- | --- |
| MNKTELINAVAETSGLSKKDATKAVDAVFDSITEALRKGDKVQLIGFGNFEVRERSARKGRNPQTGEEMEIPASKVPAFKPGKALKDAVK | 0.13 kcal/mol | 63.3 °C | -0.6 °C | 83 kcal/mol | – | – | – | – | – |
| MNKTELINAVAETSELSKKDATKAVDAVFDSITEALRKGDKVQLIGFGNFEVRERAARKGRNPQTGEEMEIPASKVPAFKPGKALKDAVK | – | 54 °C | -9.9 °C | – | 55.7 °C | -10.1 °C | – | – | – |
| MNKTELINAVAETSGLSKKDATKAVDAVFDSITDALRKGDKVQLIGFGNFEVRERAARKGRNPQTGEEMEIPASKVPAFKPGKALKDAVK | – | 61.6 °C | -2.3 °C | – | 63.5 °C | -2.3 °C | – | – | – |
| MNKTELINAVAETSGLSKKDATKAVDAVFDSITEALRNGDKVQLIGFGNFEVRERAARKGRNPQTGEEMEIPASKVPAFKPGKALKDAVK | – | 61.5 °C | -2.4 °C | – | 61.7 °C | -4.1 °C | – | – | – |
| MNKTELINAVAETSGLSKKDATKAVDAVFDTITEALRKGDKVQLIGFGNFEVRERAARKGRNPQTGEEMEIPASKVPAFKPGKALKDAVK | -0.41 kcal/mol | 65.8 °C | 1.9 °C | 81.1 kcal/mol | – | – | – | – | – |
| MNKTELINAVAETSGLSKKDATKAVDAVFDSITEALRKGDKIQLIGFGNFEVRERAARKGRNPQTGEEMEIPASKVPAFKPGKALKDAVK | 0.82 kcal/mol | 60.1 °C | -3.8 °C | 54.7 kcal/mol | 59.6 °C | -6.2 °C | – | – | – |
| MNKTELINAVAETSGLSKKDATKAVDAVFDSITEALRKGDKVQLIGFGNFEVRERAARKGRNPQTGEEIEIPASKVPAFKPGKALKDAVK | 0 kcal/mol | 63.9 °C | 0 °C | 79.2 kcal/mol | – | – | – | – | – |
| MNKTELINAVAETSGLSKKDATKAVDSVFDSITEALRKGDKVQLIGFGNFEVRERAARKGRNPQTGEEMEIPASKVPAFKPGKALKDAVK | – | 58.4 °C | -5.5 °C | 76.5 kcal/mol | – | – | – | – | – |
| MNKTELINAVAEASGLSKKDATKAVDAVFDTILEALKKGDKVQLIGFGNFEVRERSARKGRNPQTGEEIEIPASKVPAFKPGKALKDAVAGK | – | – | – | – | – | – | -2.98 kcal/mol | 71.3 °C | 22.7 °C |
| MNKTELINAVAEASELSKKDATKAVDSVFDTILDALKNGDKVQLIGFGNFEVRERSARKGRNPQTGEEIEIPASKVPAFKPGKALKDAVAGK | – | – | – | – | – | – | – | 52.6 °C | 4 °C |
| MNKTELINAVAEASELSKKDATKAVDAVFDTILDALKNGDKIQLIGFGNFEVRERSARKGRNPQTGEEIEIPASKVPAFKPGKALKDAVAGK | – | – | – | – | – | – | -0.73 kcal/mol | 54.2 °C | 5.6 °C |
| MNKTELINAVAEASELSKKDATKAVDSVFDTILEALKKGDKIQLIGFGNFEVRERSARKGRNPQTGEEIEIPASKVPAFKPGKALKDAVAGK | – | – | – | – | – | – | -0.45 kcal/mol | 52.1 °C | 3.5 °C |
| MNKTELINAVAEASGLSKKDATKAVDSVFDTILDALKNGDKIQLIGFGNFEVRERSARKGRNPQTGEEIEIPASKVPAFKPGKALKDAVAGK | – | – | – | – | – | – | -1.55 kcal/mol | 60.4 °C | 11.8 °C |
